In one experiment the target is HLA-A*01:01. Put plainly: IEDB peptide-MHC binding, purified MHC/competitive/radioactivity; filed as Kd, often an IC50 or EC50 that approximates it; ≥ and ≤ were set here for values at or beyond the usual limits of such assays.
The next experiment concerns the target HLA-A*23:01. The description is as above.
In another experiment the target is HLA-A*24:02. The experiment is described as above.
In a further experiment the target is HLA-A*26:01. The description is as above.
Another experiment concerns the target HLA-A*29:02. The description is as above.
The next experiment concerns the target HLA-A*30:02. The experiment is described as above.
In a further experiment the target is HLA-B*08:01. The experiment is described as above. Conditions: source organism: Vaccinia virus WR.
Experiment [1] deals with HLA-B*15:01. Described as above.
The target of another experiment is HLA-A*30:01. Described as above. Conditions: source organism: Mammarenavirus choriomeningitidis.
For another experiment, the target named is HLA-A*32:01. The description is as above.
The next experiment has as its target HLA-B*07:02. The description is as above.
The target of another experiment is HLA-A*69:01. Put plainly: IEDB peptide-MHC binding, purified MHC/direct/fluorescence; filed as Kd, often an IC50 or EC50 that approximates it; ≥ and ≤ were set here for values at or beyond the usual limits of such assays. Conditions: source organism: Haemophilus influenzae.
Experiment [2] concerns the target HLA-B*15:01. The experiment is described as above. Conditions: source organism: Haemophilus influenzae.
The target of the next experiment is HLA-B*40:01. The description is as above. Conditions: source organism: Haemophilus influenzae.
The target of another experiment is HLA-B*46:01. Kind of experiment: IEDB peptide-MHC binding, purified MHC/competitive/fluorescence; filed as Kd, often an IC50 or EC50 that approximates it; ≥ and ≤ were set here for values at or beyond the usual limits of such assays. Conditions: source organism: Haemophilus influenzae R3021.
The target in a further experiment is HLA-B*53:01. Kind of experiment: IEDB peptide-MHC binding, purified MHC/competitive/radioactivity; filed as Kd, often an IC50 or EC50 that approximates it; ≥ and ≤ were set here for values at or beyond the usual limits of such assays. Conditions: source organism: Dengue virus 2 Jamaica/1409/1983.
In another experiment the target is HLA-B*51:01. Described as above. Conditions: source organism: Dengue virus 4 Philippines/H241/1956.
Setting [3] is: source organism: SARS coronavirus Tor2.
The mark [4] stands for this setting: source organism: Vaccinia virus WR.
Where [5] appears, read: source organism: Mammarenavirus choriomeningitidis.
The mark [6] stands for this setting: source organism: Dengue virus 2 Jamaica/1409/1983.
Setting [7] is: source organism: Dengue virus 4 Philippines/H241/1956.
The mark [8] stands for this setting: source organism: Mammarenavirus lassaense.
Setting [9] is: source organism: Mammarenavirus juninense.

In the case of LVSTQEFRY, the Kd with HLA-A*01:01 (setting [3]) came to 30.8 nM; in the experiment with HLA-A*23:01 (setting [3]), 10900 nM; in the experiment with HLA-A*24:02 (setting [3]) it was 12700 nM; in the experiment with HLA-A*26:01 (setting [3]), 1760 nM; with HLA-A*29:02 (setting [3]), 6.84 nM; in the experiment with HLA-A*30:02 (setting [3]) it was 5.95 nM.

For the sequence FIAKHFLEL, the Kd with HLA-B*08:01 was 1.3 nM; in the experiment with HLA-B*15:01 [1] (setting [4]), 6500 nM.

As for DTSNTGRAEL, the Kd in the experiment with HLA-A*01:01 (setting [5]) is no less than 50200 nM; with HLA-A*26:01 (setting [5]), 16000 nM; with HLA-A*29:02 (setting [5]), no less than 71400 nM; in the experiment with HLA-A*30:01 it was no less than 24500 nM; with HLA-A*30:02 (setting [5]), 7180 nM; with HLA-A*32:01 (setting [5]) it was no less than 69900 nM.

Consider LMRRGDLPVW, for which the Kd with HLA-B*15:01 [1] (setting [6]) came to 159 nM.

As for FFTYLCGFI, the dissociation constant Kd with HLA-A*01:01 (setting [3]) is no less than 43100 nM; with HLA-A*23:01 (setting [3]), 13700 nM; in the experiment with HLA-A*24:02 (setting [3]), 18800 nM; with HLA-A*26:01 (setting [3]), no less than 77900 nM; in the experiment with HLA-A*29:02 (setting [3]), 822 nM; with HLA-A*30:02 (setting [3]), no less than 78900 nM.

For the sequence NPNMTDKTPV, in the experiment with HLA-B*07:02 (setting [7]), the Kd came out at 118 nM.

FSAVGNICY: the Kd is 0.34 nM with HLA-A*01:01 (setting [3]); no less than 77800 nM with HLA-A*23:01 (setting [3]); no less than 51600 nM in the experiment with HLA-A*24:02 (setting [3]); 409 nM in the experiment with HLA-A*26:01 (setting [3]); 7.97 nM with HLA-A*29:02 (setting [3]); 28.5 nM in the experiment with HLA-A*30:02 (setting [3]).

Consider RYWYLNHTV, for which the Kd was no less than 28200 nM with HLA-A*01:01 (setting [8]); 15.3 nM with HLA-A*23:01 (setting [8]); 76.8 nM with HLA-A*24:02 (setting [8]); no less than 77900 nM with HLA-A*26:01 (setting [8]); no less than 38600 nM with HLA-A*29:02 (setting [8]); 0.603 nM with HLA-A*30:02 (setting [8]).

In the case of HTSSMRGVY, the equilibrium dissociation constant (Kd) with HLA-A*01:01 (setting [3]) is 85.2 nM; with HLA-A*23:01 (setting [3]), no less than 77800 nM; with HLA-A*24:02 (setting [3]), no less than 77600 nM; with HLA-A*26:01 (setting [3]), 4.78 nM; in the experiment with HLA-A*29:02 (setting [3]) it was 8.21 nM; with HLA-A*30:02 (setting [3]), 0.131 nM.

Take EQFPNATAF: the Kd with HLA-A*69:01 turned out to be 9840 nM; with HLA-B*15:01 [2], 42.3 nM; with HLA-B*40:01, 2970 nM; with HLA-B*46:01, 2370 nM.

SLCKLNNVF: the Kd in the experiment with HLA-A*32:01 (setting [4]) turned out to be 927 nM; with HLA-B*15:01 [1] (setting [4]), 16 nM.

For MWSFNPETNI, the Kd in the experiment with HLA-A*01:01 (setting [3]) is no less than 70400 nM; with HLA-A*23:01 (setting [3]), 407 nM; with HLA-A*24:02 (setting [3]) it was 551 nM; in the experiment with HLA-A*26:01 (setting [3]) it was no less than 39100 nM; in the experiment with HLA-A*29:02 (setting [3]), 13300 nM; in the experiment with HLA-A*30:02 (setting [3]) it was no less than 24700 nM.

On to MATFKMRPM, for which the Kd with HLA-B*07:02 (source organism: Dengue virus 1 Brazil/97-11/1997) turned out to be 158 nM.

Consider FTIMAAILAY, for which the dissociation constant (Kd) stood at 973 nM with HLA-A*01:01 (setting [6]); 55 nM with HLA-A*26:01 (setting [6]); 2170 nM in the experiment with HLA-A*30:02 (setting [6]); 2.18 nM in the experiment with HLA-B*15:01 [1] (setting [6]); 3450 nM in the experiment with HLA-B*53:01.

Turning to MYASALVLL, the Kd in the experiment with HLA-A*01:01 (setting [3]) was no less than 66000 nM; with HLA-A*23:01 (setting [3]), no less than 46400 nM; with HLA-A*24:02 (setting [3]) it was no less than 65300 nM; with HLA-A*26:01 (setting [3]), 4620 nM; with HLA-A*29:02 (setting [3]) it was no less than 22500 nM; with HLA-A*30:02 (setting [3]) it was no less than 33500 nM.

As to GPMVAGGLLL, the results for the Kd with HLA-B*07:02 (setting [7]) and with HLA-B*51:01 were 36.3 nM and no less than 69600 nM, respectively.

With KNNNEFAFF, the Kd with HLA-B*15:01 [1] (setting [4]) worked out at 1330 nM.

Take KAEVSMHEV: the Kd in the experiment with HLA-A*01:01 (setting [9]) is 17500 nM; with HLA-A*23:01 (setting [9]) it was no less than 68600 nM; with HLA-A*24:02 (setting [9]) it was no less than 77500 nM; with HLA-A*26:01 (setting [9]), no less than 77900 nM; with HLA-A*29:02 (setting [9]) it was no less than 78900 nM; with HLA-A*30:02 (setting [9]) it was no less than 51900 nM.

As to ESDGKPQKV, the Kd is 188 nM in the experiment with HLA-A*01:01 (setting [8]); no less than 77700 nM in the experiment with HLA-A*23:01 (setting [8]); no less than 77500 nM with HLA-A*24:02 (setting [8]); no less than 77900 nM with HLA-A*26:01 (setting [8]); no less than 78900 nM with HLA-A*29:02 (setting [8]); no less than 76900 nM with HLA-A*30:02 (setting [8]).

Source of the values: the Immune Epitope Database (IEDB).
